Laboratory results reported in a protein production outcome set (Wang et al. 2014).

Test: label from the status in PepcDB records

Row | Sequence | protein production
1 | MGSVLVDLQIATENIEGLPTEEQIVQWATGAVQPEGNEVEMTVRIVDEAESHELNLTYRGKDRPTNVLSFPFECPDEVELPLLGDLVICRQVVEREASEQEKPLMAHWAHMVVHGSLHLLGYDHIEDDEAEEMESLETQIMQGLGFDDPYLAEK | not failed
2 | MQPGWMSSRFYQTCDWIWKLAYINLLWLSGTLLGLVVLGFLPATTAMFTVLRKWFTGNPDVAITRTFFQAYKNEFLKINLLGAVLLLGAYILYFNYMYLGTVEGTVHMVLSLGWYAFLILYIITLFYIIPAYVHYNLKLFQYIKTALIIGFVNPLALVTLAISIGLLGYLLYLVPGLIPFFGPSTFALIVMWCANMSFNRVEKKKEKLELAGQN | failed
3 | MRMRRSFPFLAGSALLVVLSAPAVAADGDEGFTIGDSRITESSGLAASRLHPGVYWTHNDSDDGPYLYAVDSRTGKTVATVTLSGVGSPRDVEAISIGPGNEIYVGDIGDNLGGQWDHVWIYELPEPKVLEDQTIRATQYVVKYADGARDAESLMVHPKTGRVYIVDKKEDGGHLYEGPARLSASGTNVFEPLGAVGLWATDAAFSPDGKQLAVRGYFGGIAYTWNGGKIKRQGQLSVPLQRQGESVTYTADGSELMYGSEGADSAVKPGSVPGYSGSGAKSPSGGGGSASAQDGDSDGSHANYKVGALALAVALALGLGVKRLLRRG | failed
4 | MNLDKVNKYIKDFEKTIKKPKINFDKSKFYVGVDLGTANIVITILDKDGKPVAGVTQRSRVVRDGIVVDFMEAIEIVRKLKENLEKKLGIEITEGYTAIPPGVEQGSVRAIVNVIESAGIDVLKVVDEPTAASYVLGITDGVVVDLGGGTTGISILEKGKVIFVADEPTGGTHMTLVLAGSYGIDFETAEDIKTDKKKEKEVFVQITPVLQKMAAIVKKYIKDYKVKDVFLVGGACSFDGSESIFERELGLNIYKPYMPVYITPLGIALAGMKSLEHHHHHH | not failed
5 | AIAFKRKTAWFSDSVEKEVISFWVSEGGDISSWKTAGYLFSDDASSEDTKRIYGSEDYVKNRATVFHSSFLLACQPRQSVTSVPIGHYVLPPDFVQNEMKAIIGRFIWEKDEQVICEEQINPEVPKDILSGETEDHALRERSSQDDYQTVTSQSKVCSCCEMRQYPVNNMISGYVHIDQMRKYSGELKDFLPSLHGHDVSRSNDPTPPFHRKAV | failed
6 | MGLLVVKAQRQLRKIDNSKVFQGVVIAVILLSALLIGAKTHNLSSNVVAILLLMDVAVTVFFAIEISIRYLACPQKKNFFKSGWNIFDTVIVIGSLVPSGGSGVLLARLLRVFRVLRLVSMVPELRLLINALLKAIPRMGYIALLMFVIFYIYAAIGSMYFHSINEVLWGDVSISMLTLFRVATFEDWTDVMYETMAVHPLSWIYYLTFIFLTAFIFLNMMVGTVLEVMSQEHEQFRAEQHGESGDGGEPASRAQIDKLESEIAEIKALLLAKT | failed
7 | MAQNKNLNLELSLSQYVEDDPWVLKKKLSDSDLYYSAQLYLPKQEMEHFVLPEMDHDLVRKLGAGVEVKVRDVDSVDDFYTVRLKVRNGQYYLGKGWGLIKNAKVLNTGDHIGLFWDKLTREVKFKHFKSQSITMHREAGTTSTQKNVLQKK | failed
8 | MSLQRVTNCIVVDHDQVLLLQKPRRGWWVAPGGKMEAGESILETVKREYWEETGITVKNPELKGIFSMVIFDEGKIVSEWMLFTFKATEHEGEMLKQSPEGKLEWKKKDEVLELPMAAGDKWIFKHVLHSDRLLYGTFHYTPDFELLSYRLDPEPQMKKKGIITITTDPNSSSVDKLAAALEHHHHHH | not failed
9 | MPLLQKRVIVSNKREKVINDRRSRQQTVTPAGSEMRYEASFRPENGGLEVVFRLDAPQYHALSVGDRGMLSYKGTAFVAFTPDPLEHHHHHH | not failed
10 | MEMKTKKAVLMSSLALSIIAFLLALILMQPNSAGYPEVPAVPTYVLFGLSAASFAVFIYEYFTATRT | failed
11 | MHQDVLLGGRYRLGAQLGGGSEAYVNEAWDLLSGKTVAVKIFRSTNSLDNAPFRRELEIHGRLRHRNIVRILDSGDTDSRGDGAGVGQDNRHFVVMELVAGKDLRWILQDKPASPEQTAAWMTDVARALAHVHRRGIVHNDIKPGNILVDFASDPGGPGVAKLADFGIALNGRHGVPNSSSGTPHYLSPEEVCGGTSTTASDIYSLGLVALECLTGTKAFPGPPLESMVARTLGEPRIPGTVRRRWSMVLHAMTDPDPAGRPSASQTVGMLRRLSW | failed
12 | MKVFEFEVGKGFLLRLDYGKDLVRQIEEFLEEKGIHAAHISAIGAVRSAVIGYYDQEKKEYVKKELMEPLEILSLSGNVSMKDSKPFCHIHVLLGKDGEVYGGHLFSAEVFACEVFVLPLSGEAPERAFDEQTGLFLWLEHHHHHH | not failed
13 | MSYSNILVAVAVTPESQQLLAKAVSIARPVKGHISLITLASDPEMYNQLAAPMLEDLRNVMQEETQSFLDKLIQDAGYPVDKTFIAYGELSEHILEVCRKHHFDLVICGNHNHSFFSRASCSAKRVITSSEVDVLLVPLTGD | failed
14 | MARDGGVSCLRRSEMMSVGGIGGIESAPLDLDEVHVLAVDDSLVDRIVIERLLRITSCKVTAVDSGWRALEFLGLDNEKASAEFDRLKVDLIITDYCMPGMTGYELLKKIKESSNFREVPVVIMSSENVLTRIDRCLEEGAQDFLLKPVKLADVKRLRSHLTKDVKLSNGNKRKLPEDSSSVNSSLPPPSPPLTISPESSPPLTVSTESSDSSPPLSPVEIFSTSPLSSPIDDEDDDVLTSSSEESPIRRQKMRSPGLD | failed
15 | MAAGRHCRAPHRCQTHPRLIALGHNHRMNAQLTQELPEFPTWLNARPSTLQEHRGRALVLAFVNASSVWCAERLAELAHWQARSPGRLQVIVVQVPRFDSERLPQRSLKQLRGHGVSAPILLDKDWETWRRFGIESWPTLVLLDAYGRERQRLVGVTGDLDKALTALCEGQPPPSDADLHGVAEREPEPHLALRFPTGLAATEDRLYVADTGHHRVLECTHSGRVLRQFGHGNADLIDGGVGEAAFRRPQGLALERDQLYVADTGNHALRRINLRSGQVDTLCGTGRSGEPVEGPLASPGGSALNYPQGLAIADNQVLIAMAGDNRIWSYHLGRAALTARAGTGALEIRDGSGHLAAFAQPAGLASVQQVAYVCDGLGSSIRTMQLRGDLVQTLVGGQGTWQFGDQDGPRSTARLQFPQAIALAADSPLLWIADTGNGRLRCLRLGGGELTTVALPRRLHGPAGLAVAAGAVWIAETDAHAILRYDLASGALSDVSIDE | failed
16 | MVIRVYIASSSGSTAIKKKQQDVLGFLEANKIGFEEKDIAANEENRKWMRENVPENSRPATGYPLPPQIFNESQYRGDYDAFFEARENNAVYAFLGLTAPPGSKEAEV | not failed
17 | MSLDDIINNMIDKLKLLVHFDRISFLLLANETLKLSHVYPKGSHSLDIGSTIPKEQSLYWSALDQRQTIFRSLTDTQDNFYEKQYLAILDLKSILVIPIYSKNKRVGVLSIGRKQQIDWSLDDLAFLEQLTDHLAVSIENVELYGQVLRSKQEWEDTFKAVD | not failed
18 | MKKFYFLILGIVLCGMVAQAQNSYEGHIGFGQHHVVRKGGELNVEVSLDLGAVKLAAQQMIVLTPVLRSTEGEEQQQLAPVVIAGPRRYRVLKRSLAFGTDNFEMSPMLVEKRKSGTPQTVNLHFGLPYHEWMRRAELILREEVTGCADCPVSQGDHTVITSVFDEQFTPRYELSYVTPPVEPLKQRSETHTAYLNFEVDKYVLLRNYKNNANVLADVDRIVNEIQNDSNLTVTEFRVTGYASPEGNYSRNMKLSENRALAFVGYLQNHGGVDESLLTVDWKGEDWSGLRREVAASSLIDKGAILAVIDGHTDFATRKNRLQALNGGTTYRMLLRDYYPPLRRNEYTISYVARAFNVDEAKQLIKTKPQYLSLNEMFLVANTYPKDSGEFKEVFDIAARIYPDDPVARLNTAALELENGAIDAAIVRLQKSDMPEAWNNLGIAYILKQDYKKGGEYLEKAIDAGIQAAAYNMGQLAAWLKTQE | failed
